Results published in patent US20080274112A1, “Nogo Receptor Antagonists” (priority 2003, published 2008).
Entries after “also recorded” stand apart in the source; their conditions may differ.

Experiments:
[1] = target: T1, sNogoR344-Fc (residues 26-344 of rat Nogo receptor-1) (Rattus norvegicus, UniProt Q99M75, A303T/C287S/C43R/E284G/T53A); assay: Inhibition of 125I-Nogo66 binding to sNogoR344-Fc on SPA beads; details: curve-fit
T1 construct: amino acid residues 26-344 of rat Nogo receptor-1; made in house
T1 sequence (Q99M75 26-344 C43R/T53A/E284G/C287S/A303T): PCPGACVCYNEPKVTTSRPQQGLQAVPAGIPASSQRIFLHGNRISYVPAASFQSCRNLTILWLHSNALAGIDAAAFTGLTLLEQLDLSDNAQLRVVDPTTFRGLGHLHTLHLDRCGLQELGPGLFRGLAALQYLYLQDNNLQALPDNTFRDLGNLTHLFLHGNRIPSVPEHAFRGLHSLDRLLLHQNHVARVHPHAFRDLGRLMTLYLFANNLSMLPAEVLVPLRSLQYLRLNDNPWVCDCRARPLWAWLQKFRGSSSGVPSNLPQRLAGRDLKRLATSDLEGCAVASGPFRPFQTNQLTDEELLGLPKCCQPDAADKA
Procedure: 0.5 μg of a soluble Nogo receptor-1 fusion protein comprising amino acid residues 26-344 of rat Nogo receptor-1 and the hinge and Fc region of the rat IgG1 molecule (sNogoR344-Fc) produced as described below was immobilized on 250 μg of protein-A- or wheatgerm agglutinin-conjugated SPA beads (Amersham Pharmacia Biotech) for 2 hours at 25° C. SPA beads coupled with Fc-sNogoR-1, anti-Nogo receptor-1 mAb and 1 μl ^125I-Nogo66 (Amersham, 2000 Ci/mmol, 1 nM) in 50 μl of the HEPES-buffered incubation medium (10 mM HEPES, pH 7.4, 0.1% bovine serum albumin, 0.1% ovalbumin, 2 mM MgCl2, 2 mM CaCl2 and protease inhibitors) was added to each sample well. After 16 hours, radioactivity was measured in quadruplicate samples using a TopCount® (Packard). IC50 values were calculated from a curve-fit analysis (FIG. 3) (PRISM, GraphPad Software, NJ). In some experiments, we also used AP-ligand conjugates (e.g. AP-Nogo66) and detected binding by monitoring alkaline phosphatase activity. We also assayed the ability of the mAbs to block binding of the ligands MAG-Fc and AP-OM-gp to Nogo receptor-1.

[2] = target: T2, rat NgR1 (Rattus norvegicus, UniProt Q99M75); assay: Antibody binding to rat Nogo receptor-1
T2 sequence (Q99M75 27-447): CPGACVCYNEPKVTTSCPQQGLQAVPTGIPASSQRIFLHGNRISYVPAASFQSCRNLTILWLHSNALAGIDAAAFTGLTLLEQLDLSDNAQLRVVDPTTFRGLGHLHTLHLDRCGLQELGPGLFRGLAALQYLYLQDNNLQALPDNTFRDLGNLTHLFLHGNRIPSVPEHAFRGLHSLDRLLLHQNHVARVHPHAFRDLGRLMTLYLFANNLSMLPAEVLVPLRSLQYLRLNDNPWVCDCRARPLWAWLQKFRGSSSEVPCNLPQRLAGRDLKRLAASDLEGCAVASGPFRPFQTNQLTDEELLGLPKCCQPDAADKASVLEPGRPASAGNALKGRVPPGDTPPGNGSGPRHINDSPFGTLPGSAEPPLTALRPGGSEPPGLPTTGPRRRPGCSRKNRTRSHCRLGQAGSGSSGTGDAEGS

[3] = target: T3, human NgR1 (Homo sapiens, UniProt Q9BZR6); assay: Antibody binding to human Nogo receptor-1
T3 sequence (Q9BZR6 27-447): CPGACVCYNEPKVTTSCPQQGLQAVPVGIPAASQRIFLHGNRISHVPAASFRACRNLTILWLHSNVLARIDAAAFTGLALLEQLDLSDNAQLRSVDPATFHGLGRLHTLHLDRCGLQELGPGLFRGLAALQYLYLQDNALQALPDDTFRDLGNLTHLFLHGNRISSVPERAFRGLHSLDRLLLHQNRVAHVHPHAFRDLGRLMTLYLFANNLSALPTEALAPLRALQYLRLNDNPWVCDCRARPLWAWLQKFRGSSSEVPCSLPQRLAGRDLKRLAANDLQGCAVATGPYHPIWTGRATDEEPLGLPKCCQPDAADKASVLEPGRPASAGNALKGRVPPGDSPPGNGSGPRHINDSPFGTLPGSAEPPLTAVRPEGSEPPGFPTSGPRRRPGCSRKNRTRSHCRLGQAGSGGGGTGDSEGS

[4] = tested on: DRG neurons; assay: Neurite outgrowth assay on CNS myelin (Example 5); format: cell-based; details: P3-4 rat DRG; 15 μg/ml mAb 7E11
Procedure: To test the ability of the monoclonal and Fab-phage antibodies produced above to lessen the inhibitory effect of CNS myelin on neurons, Lab-Tek® culture slides (4 wells) were coated with 0.1 mg/ml poly-D-lysine (Sigma®). CNS myelin or PBS was spotted as 3 μl drops. Fluorescent microspheres (Polysciences) were added to the myelin/PBS to allow later identification of the drops (Grandpre et al, Nature 403, 2000). Lab-Tek® slides were then rinsed and coated with 10 μg/ml laminin (Gibco™). Dorsal root ganglions (DRG's) from P3-4 Sprague Dawley rat pups were dissociated with 1 mg/ml collagenase type 1 (Worthington), triturated with fire-polished Pasteur pipettes pre-plated to enrich in neuronal cells and finally plated at 23,000 cells/well on the pre-coated Lab-Tek® culture slides. The culture medium was F12 containing 5% heat inactivated donor horse serum, 5% heat inactivated fetal bovine serum and 50 ng/ml MNGF and incubated at 37 °C and 5% CO2 for 6 hours. Fifteen μg/ml of mAb 7E11 was added immediately after plating.
Slides were fixed for 20 minutes with 4% paraformaldehyde containing 20% sucrose and stained for the neuronal marker anti beta-III-tubulin (Covance TUJ1) diluted 1:500. […] 5× digital images were acquired with OpenLab™ software and analysed by using the MetaMorph® software for quantification of neurite outgrowth.

[5] = target: T4, human Nogo receptor-1 (Homo sapiens, UniProt Q9BZR6); assay: Immunohistochemical staining of fixed and live cells expressing human Nogo receptor-1; format: cell-based
T4 construct: expressed in transfected cells; host or cells: COS-7 or 293 cells
T4 sequence (Q9BZR6 27-447): T3 sequence (Q9BZR6 27-447)
Procedure: To further characterize the binding properties of anti-Nogo receptor-1 mAbs produced as described in Example 1, we compared binding to both fixed and live COS-7 or 293 cells expressing rat or human Nogo receptor-1.
Nogo receptor-1 transfected and non-transfected cells were plated in 8-well Lab-Tek® culture slides, fixed with 4% paraformaldehyde for 15 minutes, blocked with 10% normal goat serum, 0.1% Triton X-100 in PBS for 1 hour. Mab 7E11 was added at 15 μg/ml and 1.5 μg/ml in blocking solution and incubated for 2 hours at room temperature; Alexa®-conjugated secondary antibody anti-mouse (Molecular Probes) was incubated at a 1:300 dilution in blocking solution for 1 hour; DAPI was added at 5 μg/ml to the secondary antibody to label all nuclei.
Transfected and non-transfected cells were plated in 8 well Lab-Tek® culture slides, blocked with FACS buffer (containing 4% donor horse serum) for 30 minutes at 4° C., incubated with 7E11 at 15 μg/ml and 1.5 μg/ml in FACS buffer for 1 hour at 4° C., rinsed and incubated with secondary antibody anti-mouse-Alexa® (1:300 in FACS buffer) for 30 minutes at 4° C.

IC50 [1]: 400 nM | binding to rat NgR1 [2]: bound; also recorded: binds well | binding to human NgR1 [3]: bound; also recorded: binds well | binding to cells expressing human Nogo receptor-1 [5]: bound both fixed and live cells
B1: 7E11: murine monoclonal anti-Nogo receptor-1 antibody, IgG1 kappa, ATCC PTA-4587; immunogen rat Nogo receptor-1 residues 110-125 (antibody, V domains shown)
VH: VQLQESGAELVMPGASVKMSCKASGYTFTDYWMHWVKQRPGQGLEWIGAIDPSDSYSSYNQNFKGKATLTVDGSSSTAYMQLSSLTSEDSAVYYCARRITEAGAWFAYWGQGTTVT
VL: DVVMTQTPLSLPVSLGDQASISCRSSQSLVHSNGNTYLHWYLQKPGQSPKLLIYKVSNRFSGVPDRFSGSGSGTDFTLKISRVDAEDLGVYFCSQSTHVPFTFGGGTKLEIKRADAAPTVSISHH
protection from myelin-mediated inhibition of neurite outgrowth [4]: protected
